Data set [1] can be described thus: Thioflavin T binding assay and electron microscopy for amyloid formation. Format: physicochemical. The protocol: A thioflavin T binding assay was used to investigate whether chlorination of apoA-I promotes amyloid formation. Thioflavin T is known to bind rapidly to amyloid fibrils and undergoes a dramatic increase in fluorescence at 485 nm upon excitation at 455 nm (see Naiki, H., et al., Anal. Biochem. 177:244-249, 1989). apoA-I was chlorinated by treatment with HOCl or the MPO system and a time course of thioflavin T binding to treated apoA-I was carried out over 60 minutes as shown in FIG. 6B.

The target of data set [2] is T1, ABCA1 (Homo sapiens, UniProt O95477). Briefly: Radiolabeled cholesterol efflux assay from ABCA1-transfected BHK cells. Format: cell-based. Further details: expressed in transfected cells; host or cells: BHK (baby hamster kidney) cells, mifepristone-inducible GeneSwitch system. As to conditions: apoA-I treated with increasing concentrations of MDA.
The nature of data set [3]: Far UV circular dichroism of HOCl-treated apoA-I. Format: physicochemical. As to conditions: treated 1 hour with HOCl. How it is done: Secondary structure of apoA-I was determined using far UV circular dichroism.
(Circular dichroism is widely used to follow secondary structure.)

Data set [4] concerns the target T1, ABCA1. Briefly: Radiolabeled cholesterol efflux assay from ABCA1-transfected BHK cells. Format: cell-based. Further details: expressed in transfected cells; host or cells: BHK (baby hamster kidney) cells, mifepristone-inducible GeneSwitch system. The settings on record: for cholesterol efflux promoted: after oxidation by the MPO system. The protocol:
The effect of oxidant treatment of apoA-I on the ability of apoA-I to promote cholesterol efflux from cells via the ABCA1 pathway was measured as follows.
A radiolabeled cholesterol efflux assay from ABCA1-transfected cells was carried out as described in Shao, et al., J. Biol. Chem. 280(7):5983-5993, 2005. Briefly described, baby hamster kidney (BHK) cells expressing mifepristone-inducible human ABCA1 were generated as described in Vaughan, A. M., et al., J. Lipid. Res. 44:1373-1380, 2003. Cellular cholesterol was labeled by adding 1 μCi/ml [^3H]cholesterol (Perkin Elmer Life Sciences) to the growth medium. Twenty-four hours later, strong expression of ABCA1 was induced by incubating the cells for 20 h with Dulbecco's modified Eagle's medium containing 1 mg/ml bovine serum albumin and 1 nM mifepristone. To measure cholesterol efflux, mock or ABCA1-transfected cells were incubated with Dulbecco's modified Eagle's medium/bovine serum albumin with or without apoA-I treated under the following conditions:
(1) purified apoA-I was treated for 1 hour with increasing concentrations of HOCl, H2O2 with MPO plus NACl, ONOO, or H2O2 with MPO plus NO2;
(2) purified apoA-I was treated for 24 hours with a molar ratio (mol:mol) of 0, 1:25, or 1:50 of acrolein; and
(3) peptide 2F was treated for 1 hour with a 25 molar excess of HOCl.
After 2 hour incubations with apoA-I, the medium and cells were assayed for [^3H]cholesterol as described in Vaughan, A. M., et al., J. Lipid. Res. 44:1373-1380, 2003. Cholesterol efflux mediated by apoA-I was calculated as the percentage of total [^3H]cholesterol (medium plus cells) released into the medium after subtracting the value obtained with Dulbecco's modified Eagle's medium/bovine serum albumin alone. Acrolein adducts of K226 were measured by MS.
BHK cells transfected with a mifepristone-inducible GeneSwitch (Invitrogen) system containing a human ABCA1 cDNA were incubated with serum-free medium with or without 10 nM mifipristone for 24 h to generate cells expressing virtually no or high levels of ABCA1, respectively (see Vaughan, A. M., and J. F. Oram, J. Lipid Res. 44:1373-1380, 2003). To radiolabel cellular cholesterol, [^3H]cholesterol was added to the acetyl LDL medium for macrophages and the growth medium prior to ABCA1 induction for BHK cells. Efflux of [^3H]cholesterol was measured after a 2 h incubation in medium with or without apoA-I (Tang, C., et al., J. Biol. Chem. 279:7622-7628, 2004).

Data set [5] concerns the target T2, Lecithin Cholesterol Acyltransferase (LCAT) (Homo sapiens, UniProt P04180).
T2 sequence (P04180 25-440): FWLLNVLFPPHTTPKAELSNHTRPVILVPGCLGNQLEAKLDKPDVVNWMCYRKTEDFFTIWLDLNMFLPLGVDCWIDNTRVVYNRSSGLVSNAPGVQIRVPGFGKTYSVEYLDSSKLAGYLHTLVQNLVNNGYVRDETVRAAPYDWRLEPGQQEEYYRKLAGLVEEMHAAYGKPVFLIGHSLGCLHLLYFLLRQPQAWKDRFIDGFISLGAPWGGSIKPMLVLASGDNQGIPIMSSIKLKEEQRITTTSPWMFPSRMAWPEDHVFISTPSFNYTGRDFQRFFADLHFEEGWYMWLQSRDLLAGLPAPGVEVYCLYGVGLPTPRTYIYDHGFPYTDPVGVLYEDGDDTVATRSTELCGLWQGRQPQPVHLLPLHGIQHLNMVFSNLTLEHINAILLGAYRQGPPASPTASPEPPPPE
Kind of data set: Activation of LCAT after oxidation with MPO. As to conditions: apoA-I exposed to MPO. Format: biochemical. The protocol: Reactions with isolated HDL (1 mg protein/ml) were carried out at 37° C. for 1 h in 50 mM sodium phosphate buffer (pH 7.4) containing 100 uM DTPA and 100 nM MPO. Reactions were initiated by adding hydrogen peroxide and terminated by adding a 20-fold molar excess (relative to peroxide) of Met.

Data set [6] can be described thus: Denaturing SDS-PAGE analysis of oxidant-treated apoA-I. The format is physicochemical. The protocol: In order to analyze the effects of HOCl and acrolein on apoA-I structure, purified apoA-I was treated with a molar ratio of HOCl at mol:mol concentrations of 0, 5, 10, or 25; or with a molar ratio of acrolein at mol:mol concentrations of 0, 1, 2, 5, 10, or 20.

Data set [7] is described as follows: ESI-MS analysis of chlorination after incubation with HOCl. As to conditions: incubated in the presence of HOCl. Format: physicochemical.
Data set [8] has as its target T1, ABCA1. The arrangement: expressed in transfected cells; host or cells: BHK (baby hamster kidney) cells. The settings on record: cited from earlier work.
For data set [9], the system named is Baby Hamster Kidney (BHK) cells transfected with a transfection vector alone (Mock). Kind of data set: 3H-cholesterol efflux from Mock-transfected BHK cells (ABCA1-independent, Example 11). Format: cell-based. As to conditions: 20 μg/ml peptide, HOCl-treated (5 molar ratio HOCl to peptide), 4 hours. The protocol:
(§1) Baby Hamster Kidney (BHK) cells were transfected with a cDNA expressing ABCA1 (ABCA1) or with a transfection vector alone (Mock). The transfected cells were radiolabeled with ^3H-cholesterol, washed and then incubated for 4 hours with media containing 20 μg/ml untreated or HOCl-treated (5 molar ratio HOCl to peptide) peptide 2F (SEQ ID NO:9). At the end of the incubation, the amount of ^3H-cholesterol (efflux) released from the cells was measured and expressed as the percent total (media plus cells) ^3H-cholesterol.

Data set [10] addresses T1, ABCA1. Briefly: 3H-cholesterol efflux from ABCA1-transfected BHK cells, 4 hour incubation with peptide (Example 11). As to conditions: 20 μg/ml peptide, HOCl-treated (5 molar ratio HOCl to peptide). Further details: expressed in transfected cells; host or cells: BHK (baby hamster kidney) cells. The format is cell-based. The protocol:
as §1

Entries after “also recorded” stand apart in the source; their conditions may differ.

T1 sequence (O95477 whole entry): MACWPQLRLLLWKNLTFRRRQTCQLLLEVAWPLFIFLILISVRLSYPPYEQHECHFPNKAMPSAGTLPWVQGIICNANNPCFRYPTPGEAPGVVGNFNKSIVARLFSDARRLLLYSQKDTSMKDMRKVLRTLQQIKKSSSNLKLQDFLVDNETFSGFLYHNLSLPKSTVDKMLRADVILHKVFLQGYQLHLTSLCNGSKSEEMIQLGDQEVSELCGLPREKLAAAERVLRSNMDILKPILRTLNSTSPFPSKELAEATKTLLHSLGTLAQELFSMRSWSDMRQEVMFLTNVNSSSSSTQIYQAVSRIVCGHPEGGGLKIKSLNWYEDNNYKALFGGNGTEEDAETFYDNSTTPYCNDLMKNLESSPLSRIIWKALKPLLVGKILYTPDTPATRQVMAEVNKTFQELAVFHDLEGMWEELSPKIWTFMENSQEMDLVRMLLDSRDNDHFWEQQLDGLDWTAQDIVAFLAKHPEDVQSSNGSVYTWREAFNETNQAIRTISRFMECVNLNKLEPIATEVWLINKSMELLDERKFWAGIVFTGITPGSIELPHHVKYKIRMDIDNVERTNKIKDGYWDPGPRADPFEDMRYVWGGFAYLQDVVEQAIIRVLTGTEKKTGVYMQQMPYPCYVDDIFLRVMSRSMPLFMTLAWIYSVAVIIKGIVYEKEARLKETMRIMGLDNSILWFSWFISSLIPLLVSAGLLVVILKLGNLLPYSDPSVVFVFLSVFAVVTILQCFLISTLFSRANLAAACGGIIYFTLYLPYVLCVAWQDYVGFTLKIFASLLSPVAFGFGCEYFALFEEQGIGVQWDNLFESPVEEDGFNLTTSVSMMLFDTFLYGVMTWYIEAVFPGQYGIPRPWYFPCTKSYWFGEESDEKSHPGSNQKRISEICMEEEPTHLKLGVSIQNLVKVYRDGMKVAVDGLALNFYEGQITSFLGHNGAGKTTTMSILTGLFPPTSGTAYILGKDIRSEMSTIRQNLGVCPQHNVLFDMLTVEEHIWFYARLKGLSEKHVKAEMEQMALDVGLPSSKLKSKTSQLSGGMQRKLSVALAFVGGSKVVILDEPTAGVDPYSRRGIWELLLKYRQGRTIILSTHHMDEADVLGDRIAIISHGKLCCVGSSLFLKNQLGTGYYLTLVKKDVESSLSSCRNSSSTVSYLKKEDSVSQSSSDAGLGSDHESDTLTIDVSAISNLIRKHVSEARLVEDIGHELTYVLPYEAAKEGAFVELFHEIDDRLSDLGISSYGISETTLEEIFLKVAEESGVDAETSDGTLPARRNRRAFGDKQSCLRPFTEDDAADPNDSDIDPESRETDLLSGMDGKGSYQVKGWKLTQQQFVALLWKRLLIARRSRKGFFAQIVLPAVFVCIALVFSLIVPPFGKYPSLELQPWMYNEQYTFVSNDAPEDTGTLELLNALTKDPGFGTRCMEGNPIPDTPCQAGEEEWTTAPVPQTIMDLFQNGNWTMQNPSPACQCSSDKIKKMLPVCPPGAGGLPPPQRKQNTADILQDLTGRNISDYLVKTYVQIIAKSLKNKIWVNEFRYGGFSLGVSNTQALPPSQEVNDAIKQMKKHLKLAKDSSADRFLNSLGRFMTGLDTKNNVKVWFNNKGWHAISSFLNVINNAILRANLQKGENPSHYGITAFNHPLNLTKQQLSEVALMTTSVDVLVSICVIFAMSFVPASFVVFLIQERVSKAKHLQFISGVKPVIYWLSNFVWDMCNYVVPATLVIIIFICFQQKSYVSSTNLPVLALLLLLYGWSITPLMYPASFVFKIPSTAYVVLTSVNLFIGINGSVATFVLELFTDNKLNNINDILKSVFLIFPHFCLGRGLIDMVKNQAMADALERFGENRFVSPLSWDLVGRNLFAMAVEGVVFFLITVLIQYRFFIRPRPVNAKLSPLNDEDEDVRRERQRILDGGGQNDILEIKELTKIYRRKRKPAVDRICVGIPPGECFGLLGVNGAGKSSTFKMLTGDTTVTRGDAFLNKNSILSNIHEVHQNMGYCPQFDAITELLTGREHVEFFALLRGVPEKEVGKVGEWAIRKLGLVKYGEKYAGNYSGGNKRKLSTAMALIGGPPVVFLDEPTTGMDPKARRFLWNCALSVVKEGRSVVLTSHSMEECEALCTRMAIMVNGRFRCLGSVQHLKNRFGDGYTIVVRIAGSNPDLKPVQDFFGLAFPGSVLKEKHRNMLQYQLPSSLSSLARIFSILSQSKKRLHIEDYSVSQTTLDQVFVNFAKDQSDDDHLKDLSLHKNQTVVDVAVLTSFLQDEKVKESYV

With “apoA-I: mature form of wild type human apoA-I, 243 amino acid polypeptide, purified from HDL”, the “thioflavin T binding” value in [1] (chlorination by HOCl or the complete MPO system, versus untreated apoA-I) is “markedly increased”. In addition, the amyloid-like structures entry in data set [1] (nitrated apoA-I) is on record as “failed to reveal amyloid-like structures”; in [1] (untreated apoA-I), “no detectable amyloid-like structures”. Moreover, the cholesterol efflux activity result with ABCA1 [2] is “progressively and extensively impaired”; with ABCA1 [4] (after nitration of apoA-I (H2O2 with MPO plus NO2)), “fails to affect; also recorded: only a small inhibitory effect”; with ABCA1 [4] (apoA-I treated 1 hour with increasing concentrations of HOCl or of H2O2 with the complete chlorinating MPO system), “progressively and extensively impaired”; in the data set with ABCA1 [4] (apoA-I treated with ONOO-), “no effect”. Moreover, the “mean residue molar ellipticity at 222 nm” value in data set [3] is recorded as “concentration-dependent increase”. Moreover, in the data set with ABCA1 [4] (acrolein-treated apoA-I), the “correlation (R) of impaired cholesterol removal with adduction of K226” value was determined as 0.988. Moreover, in the data set with ABCA1 [4], the cholesterol efflux promoted result was “significantly decreased”. Moreover, the “ability to remove cellular cholesterol by the ABCA1 pathway” value with ABCA1 [4] (apoA-I treated 24 hours with increasing concentrations of acrolein) is given as “progressively impaired”. Also, the “ability to promote cholesterol efflux” value in the data set with ABCA1 [4] (complete MPO system with increasing H2O2 or increasing HOCl, then PilB to reduce Met(O) back to Met) was “partially restored”. Also, the “ability to activate LCAT” value in data set [5] is listed as “looses its ability to activate LCAT; also recorded: loss of its ability”. Also, the “higher molecular weight species on SDS-PAGE” value was “generated higher molecular weight species that were resistant to SDS” in [6] (increasing concentrations of HOCl), “generated higher molecular weight species that were resistant to SDS” in [6] (increasing concentrations of acrolein) and “not observed” in data set [6] (nitrated by reagent ONOO- or the complete MPO/H2O2/NO2 system).

For the substance “Tyr192Phe apoA-I: Tyr192Phe mutant of human apoA-I made by PCR mutagenesis, bacterially expressed”, the “chlorination of residue 192 by HOCl” value in data set [7] was “fails to chlorinate”. Also, the cholesterol efflux promoted result with ABCA1 [4] is “significantly decreased”. The “protective effect against apoA-I inactivation” value in the data set with ABCA1 [4] (by either HOCL or the MPO system) is “only a small protective effect”. For the same substance, the “ability to promote cholesterol efflux” value with ABCA1 [4] (increasing H2O2 in the complete MPO system, then incubated with PilB) is given as “nearly the same as that of native apoA-I”. Moreover, the “rates of cholesterol efflux compared with native apoA-I” value in the data set with ABCA1 [4] (no oxidant, increasing protein concentrations) is “virtually identical”. Besides, in the data set with ABCA1 [4] (when the concentration of H2O2 was high), the “resistance to oxidative inactivation by MPO” value was “somewhat resistant”.

As to “Ac-DWFKAFYDKVAEKFKEAF-NH2 [4F, 4F apoA-I mimetic peptide, unmodified original]”, in the data set with ABCA1 [8], the “removing cell lipids by the ABCA1 pathway” value is “mimic apoA-I”.

“Ac-DWLKAFYDKVAEKLKEAF-NH2 [2F, 2F apoA-I mimetic peptide, unmodified]”: in data set [9], the “ability to remove cholesterol by ABCA1-independent mechanism” value is “significantly reduced”. For the same substance, the “removing cell lipids by the ABCA1 pathway” value in the data set with ABCA1 [8] is “mimic apoA-I”. In addition, the “ABCA1 dependent cholesterol efflux activity” value in the data set with ABCA1 [4] (peptide treated 1 hour with a 25 molar excess of HOCl, versus untreated peptide) is “significantly reduced”. Besides, the “ability to remove cholesterol by ABCA1-dependent mechanism” value with ABCA1 [10] is “significantly reduced”.

Values taken from US8541236B2, “Mutant apolipoprotein A-1 polypeptide with increased resistance to oxidation and reactive carbonyls” (University of Washington, priority 2006, dated 2013).
